Here are results for three substances from publication PMC5653234.

For assay [1], the target named is MBP-AKAP79 (A-kinase anchoring protein 79) with C-terminal 10x His-tag (human) (UniProt P24588). The assay can be described thus: SEC-MALS; 500 μL purified complex (~2 mg/mL) on a WTC-050S5 SEC column at 0.5 mL/min, in-line refractometer and light scattering. (In general: SEC sorts molecules by how far they enter the pores of the column.)
Assay [2] deals with His-tagged AKAP79 C-terminal fragment (PIAIIIT region) (human) (UniProt P24588). Nature of the assay: AlphaScreen or HTRF; competition: 100 nM biotinylated PP2B and 100 nM His-tagged AKAP79 or fragment, serial dilutions of untagged PP2B; streptavidin donor and nickel acceptor beads; 25 mM HEPES, pH 7.5, 100 mM NaCl, 0.1% BSA, 3 mM CaCl2, 2 μg/mL CaM; one-site IC50 fit taken to approximate the Kd.

Assay [3] has as its target His-tagged AKAP79 N-terminal fragment encompassing the LKIP motif (human) (UniProt P24588). The assay is described as above.
For assay [4], the target named is MBP-AKAP79 (A-kinase anchoring protein 79) with C-terminal 10x His-tag (human) (UniProt P24588). The assay is described as above.
Assay [5] deals with AKAP79-CaNAR (full-length AKAP79 fused to the N-terminus of CaNAR2pax) (human) (UniProt P24588).
In assay [6] the target is AKAP79∆L-CaNAR (AKAP79 lacking residues 122-136 fused to CaNAR2pax) (human) (UniProt P24588).

“PP2B holoenzyme (calcium/calmodulin-dependent protein phosphatase 2B; A and B subunits), untagged (from UniProt Q08209 1-521; P63098 1-170) (complex)”: the stoichiometry N – broadly, a count of units in the complex or per binding partner – in assay [1] came to 1. Besides, the values for the Kd in assay [2], in assay [3] and in assay [4] were 5.6 µM, 81 µM and 12 µM, respectively.
For the substance “PP2B, endogenous in HEK293 cells (from UniProt Q08209 1-521; P63098 1-170) (complex)”, the results for the time to half maximal YFP/CFP FRET response of the reporter after 1 μM ionomycin (HeLa cells) in assay [5] and in assay [6] were 3.58 min and 2.41 min, respectively.
“calmodulin (CaM) (from UniProt P0DP23 1-149) (natural protein; other documents disagree on this pair)”: in assay [1], the stoichiometry N was determined as 1.
